Measurements as given in patent publication US20100325744A1 (Genmab, published 2010).

Tests used:
human C1q (Quidel) = molecular target: T1, human C1q (Quidel) (human, UniProt P02745 23-245; P02746 28-253; P02747 29-245); test: ELISA, antibody coated, C1q detected with rabbit anti-human C1q
T1 construct: Bought (Quidel, lot 900848); also called first component of the classical complement cascade
Procedure: In short, microtiter ELISA plates (Greiner, Germany) were coated overnight at RT with the test antibodies serially diluted from 10 μg/ml to 0.06 μg/ml in PBS. Plates were emptied and wells were blocked with 200 μl ELISA-diluent per well (0.1 M NaPO₄, 0.1 M NaCl, 0.1% gelatin and 0.05% Tween-20), at RT for 30 minutes. […] After washing the plates (3×) with PBST, wells were incubated with HRP-conjugated swine anti-rabbit IgG-Fc (DAKO, P0300, lot #069) diluted in ELISA diluent (1:2500, 100 μl/well, RT, 1 hour). Thereafter, plates were washed thrice and assays were developed with freshly prepared 1 mg/ml ABTS solution (ABTS: 2,2′-azino-bis[3-ethylbenzthiazoline-6-sulfonic acid]); 2 tablets of 5 mg in 10 ml ABTS buffer, Boehringer Mannheim, Ingelheim, Germany) at RT in the dark for 30 minutes.

[1] = molecular target: the molecule itself; test: self-association; gel filtration on Superdex 200 in PBS, fractions read by Bet v 1 binding test
Procedure: Samples (100 μl) were applied to a Superdex 200 HR 10/30 column (Amersham Biosciences, Uppsala, Sweden), which was connected to a HPLC system (ÄKTA explorer) from Amersham Biosciences, Uppsala, Sweden. The column was first equilibrated in PBS. Fractions of 250 μl were collected, in which Bet v 1 specific IgG was measured using the antigen binding assay.
To test the antigen binding of the Bet v 1 specific antibodies, a sample of diluted antibody was incubated overnight at room temperature with 0.75 mg Protein-G sepharose (Amersham Biosciences, Uppsala, Sweden) in 750 μl PBS/AT (PBS supplemented with 0.3% BSA, 0.1% Tween-20, 0.05% NaN3) together with 50 μl diluted ¹²⁵I-labelled Bet v 1 or ¹²⁵I-labelled Fel d 1. […] After washing the Sepharose suspension with PBS-T (PBS supplemented with 0.1% Tween-20), the bound radioactivity was measured. The results were expressed as the amount of radioactivity relative to the amount added.

T1 sequence (P02745 23-245 limits assumed, chain 1 of 3): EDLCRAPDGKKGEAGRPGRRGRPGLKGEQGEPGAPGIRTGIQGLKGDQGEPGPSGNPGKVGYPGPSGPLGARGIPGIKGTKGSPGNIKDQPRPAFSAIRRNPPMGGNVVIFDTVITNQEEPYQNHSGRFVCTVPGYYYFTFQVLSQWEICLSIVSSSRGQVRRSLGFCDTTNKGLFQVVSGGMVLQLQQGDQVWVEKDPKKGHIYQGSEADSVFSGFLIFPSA
T1 sequence (P02746 28-253 limits assumed, chain 2 of 3): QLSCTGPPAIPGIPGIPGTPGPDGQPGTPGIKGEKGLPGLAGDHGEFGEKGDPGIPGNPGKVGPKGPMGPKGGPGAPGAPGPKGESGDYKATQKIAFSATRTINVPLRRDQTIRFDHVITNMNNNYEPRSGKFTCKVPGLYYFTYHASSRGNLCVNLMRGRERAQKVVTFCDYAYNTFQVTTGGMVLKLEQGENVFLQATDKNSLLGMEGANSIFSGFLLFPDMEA
T1 sequence (P02747 29-245 limits assumed, chain 3 of 3): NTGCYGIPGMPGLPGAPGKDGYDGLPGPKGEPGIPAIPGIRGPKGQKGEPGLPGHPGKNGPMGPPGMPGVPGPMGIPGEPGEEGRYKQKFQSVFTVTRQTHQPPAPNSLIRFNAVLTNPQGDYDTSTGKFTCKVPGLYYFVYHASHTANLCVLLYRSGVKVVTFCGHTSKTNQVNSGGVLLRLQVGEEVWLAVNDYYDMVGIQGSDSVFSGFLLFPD

Row | binding result (human C1q (Quidel)) | Binder | binding result [1]
1 | no binding | 7D8-IgG4 (antibody, Produced from pTomG47D8 and pConK7D8; also called IgG4 anti-CD20; not shown: human kappa light chain constant region, allotype km3 (vector pConKappa0.4, Lonza)) heavy: not shown light: EIVLTQSPATLSLSPGERATLSCRASQSVSSYLAWYQQKPGQAPRLLIYDASNRATGIPARFSGSGSGTDFTLTISSLEPEDFAVYYCQQRSNWPITFGQGTRLEIK | –
2 | no binding | 7D8-HG (antibody, Half-molecule of one heavy and one light chain; in PBS without other IgG it is reported to form a non-covalent dimer; also called hingeless IgG4 anti-CD20; IgG4 HG; not shown: human kappa light chain constant region, allotype km3 (vector pConKappa0.4, Lonza)) heavy: EVQLVESGGGLVQPDRSLRLSCAASGFTFHDYAMHWVRQAPGKGLEWVSTISWNSGTIGYADSVKGRFTISRDNAKNSLYLQMNSLRAEDTALYYCAKDIQYGNYYYGMDVWGQGTTVTVSSASTKGPSVFPLAPCSRSTSESTAALGCLVKDYFPEPVTVSWNSGALTSGVHTFPAVLQSSGLYSLSSVVTVPSSSLGTKTYTCNVDHKPSNTKVDKRVAPEFLGGPSVFLFPPKPKDTLMISRTPEVTCVVVDVSQEDPEVQFNWYVDGVEVHNAKTKPREEQFNSTYRVVSVLTVLHQDWLNGKEYKCKVSNKGLPSSIEKTISKAKGQPREPQVYTLPPSQEEMTKNQVSLTCLVKGFYPSDIAVEWESNGQPENNYKTTPPVLDSDGSFFLYSRLTVDKSRWQEGNVFSCSVMHEALHNHYTQKSLSLSLGK light: EIVLTQSPATLSLSPGERATLSCRASQSVSSYLAWYQQKPGQAPRLLIYDASNRATGIPARFSGSGSGTDFTLTISSLEPEDFAVYYCQQRSNWPITFGQGTRLEIK | –
3 | – | Betv1-HG (antibody, V domains shown, Half-molecule of one heavy and one light chain; also called hingeless IgG4 anti-Bet v 1; hingeless rIgG4 Betv1-HG; not shown: human kappa light chain constant region, allotype km3 (vector pConKappa0.4, Lonza)) VH: EVQLQQSGAELVKPGASVKLSCTASGFNIKDTYIHWVKQRPEQGLEWVGRIDPATGNTRYDPKFQGKATITADTSSNTAYLQLSSLTSEDTAVYYCASFRPGYALDYWGQGTSVTVSS VL: DIVMTQSHKFMSTSVGDRVSFTCKASQDVFTAVAWYQQKPGQSPKLLIYWASTRRTGVPDRFTGSGSGTDYTLTISSVQAEDLALYYCQQHFSTPPTFGGGTKLEIK | no binding
